Residue numbers refer to the chain shown, from its start. Names and notes keep the numbering of the source.
B1: human Fas ligand extracellular domain, long form, His-tagged (HuFasL^L, 103-281) (domain or fragment, UniProt P48023 103-281, looked up)
chain: QLFHLQKELAELRESTSQMHTASSLEKQIGHPSPPPEKKELRKVAHLTGKSNSRSMPLEWEDTYGIVLLSGVKYKKGGLVINETGLYFVYSKVYFRGQSCNNLPLSHKVYMRNSKYPQDLVMMEGKMMSYCTTGQMWARSSYLGAVFNLTSADHLYVNVSELSLVNFEESQTFFGLYKL
notes: human Fas ligand (FasL, CD95L), entire extracellular domain, residues 103-281 (Q103-L281), carries S153; C-terminal His-tag versions were poorly expressed and not functional; N-terminal His-tag proteins were used; Mixture of trimer and monomer by SEC; also called Long^(L); huFasL^WT; source: Freestyle CHO-S cells, transfected, purified from supernatant (his-TRAP); not shown: His tag, N-terminal, …
B2: human Fas ligand extracellular domain, long form, S153P (HuFasL-S153P^L, 103-281) (domain or fragment, UniProt P48023 103-281, looked up)
chain: B1 chain with S51P
notes: human Fas ligand (FasL), residues 103-281 with S153P; The substitution was engineered here; source: Freestyle CHO-S cells, transfected, purified from supernatant (his-TRAP)
B3: Rhesus monkey Fas ligand extracellular domain, long form, His-tagged (RhFasL^L, 103-281) (domain or fragment, UniProt P63307 103-280, looked up)
chain: LFHLQKELAELRESTSQKHTASSLEKQIGHPSPPPEKKEQRKVAHLTGKPNSRSMPLEWEDTYGIVLLSGVKYKKGGLVINETGLYFVYSKVYFRGQSCTNLPLSHKVYMRNSKYPQDLVMMEGKMMSYCTTGQMWAHSSYLGAVFNLTSADHLYVNVSELSLVNFEESQTFFGLYKL
notes: Rhesus monkey Fas ligand (FasL), entire extracellular domain, residues 103-281, carries P153; source: Freestyle CHO-S cells, transfected, purified from supernatant (his-TRAP); not shown: His tag, N-terminal, kept
B4: Rhesus monkey Fas ligand extracellular domain, shorter form (RhFasL^S, 134-281) (domain or fragment, UniProt P63307 134-280, looked up)
chain: SPPPEKKEQRKVAHLTGKPNSRSMPLEWEDTYGIVLLSGVKYKKGGLVINETGLYFVYSKVYFRGQSCTNLPLSHKVYMRNSKYPQDLVMMEGKMMSYCTTGQMWAHSSYLGAVFNLTSADHLYVNVSELSLVNFEESQTFFGLYKL
notes: Rhesus monkey Fas ligand (FasL), residues 134-281, carries P153; source: Freestyle CHO-S cells, transfected, purified from supernatant (his-TRAP)
B5: human Fas ligand extracellular domain, shorter form, His-tagged (HuFasL^S, 134-281), P48023 134-281 (domain or fragment)
chain: PSPPPEKKELRKVAHLTGKSNSRSMPLEWEDTYGIVLLSGVKYKKGGLVINETGLYFVYSKVYFRGQSCNNLPLSHKVYMRNSKYPQDLVMMEGKMMSYCTTGQMWARSSYLGAVFNLTSADHLYVNVSELSLVNFEESQTFFGLYKL
B6: human Fas ligand extracellular domain, shorter form, S153P (HuFasL-S153P^S, 134-281) (domain or fragment, UniProt P48023 134-281, looked up)
chain: B5 chain with S20P
notes: human Fas ligand (FasL), residues 134-281 with S153P; The substitution was engineered here; source: Freestyle CHO-S cells, transfected, purified from supernatant (his-TRAP)

What was measured:
[1] = biological target: human Fas ligand extracellular domain, shortest form, His-tagged (HuFasL^ST, 146-281) (human) (UniProt P48023); assay: SEC; freshly purified FasL in PBS, 10 ug loaded on Superdex 200 10/300 GL, 1 ml/min, A280; trimer and monomer peaks
[2] = biological target: murine Fas ligand extracellular domain, long form, His-tagged (muFasL^L, 103-281) (mouse) (UniProt P41047); assay: non-reducing gel with 60% lowered SDS, FasL immunoblot; his-tagged human and murine FasL forms added onto murine 4T1 cells (also human OVCAR3 cells) for 2 hr in serum-free media; supernatant precipitated and loaded without boiling on non-reducing gels
[3] = biological target: murine Fas ligand extracellular domain, shorter form, His-tagged (muFasL^S, 134-281) (mouse) (UniProt P41047); assay: as above
[4] = biological target: Rhesus monkey Fas ligand extracellular domain, shortest form (RhFasL^ST) (Rhesus monkey) (UniProt P63307); assay: SEC; freshly purified FasL in PBS, 10 ug loaded on Superdex 200 10/300 GL, 1 ml/min, A280; trimer and monomer peaks
[5] = biological target: the molecule itself; assay: as above
[6] = biological target: T1, human Fas ligand extracellular domain, shorter form, His-tagged (HuFasL^S, 134-281) (human), P48023; assay: as above; details: remark: other sources report otherwise
T1 chain: B5 chain

| Molecule | stoichiometry N [5] | other results |
| --- | --- | --- |
| human Fas ligand extracellular domain, shortest form, His-tagged (HuFasL^ST, 146-281) (from UniProt P48023 146-281) (domain or fragment) | – | stoichiometry N [1]: 3 |
| murine Fas ligand extracellular domain, long form, His-tagged (muFasL^L, 103-281) (from UniProt P41047 103-279) (domain or fragment) | – | stoichiometry N [2]: 3 |
| murine Fas ligand extracellular domain, shorter form, His-tagged (muFasL^S, 134-281) (from UniProt P41047 134-279) (domain or fragment) | – | stoichiometry N [3]: 3 |
| Rhesus monkey Fas ligand extracellular domain, shortest form (RhFasL^ST) (from UniProt P63307 146-280) (domain or fragment) | – | stoichiometry N [4]: 3 |
| B1 | 3 | – |
| B2 | 3 | – |
| B3 | 3 | – |
| B4 | 3 | – |
| B5 | – | stoichiometry N [6]: 3 |
| B6 | 3 | – |

— PMC12217004, “Evolutionary regulation of human Fas ligand (CD95L) by plasmin in solid cancer immunotherapy” (Nature Communications, 2025)
